Data: publication PMC10799895 (Nature Communications, 2024)

Molecular target: T1, His-sumo-ATG14 (UniProt Q6ZNE5 1-492)
T1 construct: not shown: 6×His, N-terminal, kept; SUMO, N-terminal, kept
Assay: pull-down; GST pull-down in vitro: GST-tagged protein on GST beads with the His-tagged protein overnight at 4 °C in 20 mM Tris pH 7.4, 300 mM NaCl, 0.1% NP-40, 1 mM PMSF; three washes; western blot
Details: both partners purified

T1 sequence (Q6ZNE5 whole entry): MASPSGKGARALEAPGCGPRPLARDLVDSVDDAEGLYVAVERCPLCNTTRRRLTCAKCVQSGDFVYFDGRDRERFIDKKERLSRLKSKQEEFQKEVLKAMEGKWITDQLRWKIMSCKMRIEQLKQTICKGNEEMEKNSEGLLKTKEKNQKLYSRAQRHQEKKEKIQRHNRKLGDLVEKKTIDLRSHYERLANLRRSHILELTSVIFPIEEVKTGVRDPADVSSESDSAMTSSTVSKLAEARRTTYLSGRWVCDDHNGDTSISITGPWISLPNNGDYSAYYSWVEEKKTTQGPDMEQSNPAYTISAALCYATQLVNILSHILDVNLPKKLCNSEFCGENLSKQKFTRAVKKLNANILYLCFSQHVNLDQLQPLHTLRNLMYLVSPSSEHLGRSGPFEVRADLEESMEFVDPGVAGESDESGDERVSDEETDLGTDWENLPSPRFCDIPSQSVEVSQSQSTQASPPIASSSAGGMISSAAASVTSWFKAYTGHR

B1: GST-GABARAP (natural protein, UniProt O95166 1-117, looked up)
chain: MKFVYKEEHPFEKRRSEGEKIRKKYPDRVPVIVEKAPKARIGDLDKKKYLVPSDLTVGQFYFLIRKRIHLRAEDALFFFVNNVIPPTSATMGQLYQEHHEEDFFLYIAYSDESVYGL
notes: also called GST-ATG8s; not shown: GST, N-terminal, kept
binding result: binds
